From patent US20160347807A1, “TARGETING P53 AND ITS DNA-BINDING DOMAIN” (UNIVERSITY OF UTAH RESEARCH DOUNDATION, priority 2014, published 2016) come the findings set out here.

Format in all cases: cell-based, human
Assay [1] concerns HeLa cells. The assay is described as follows: 7-AAD assay in HeLa cells. Particulars: 24 h after transfection. As to the method: (§1) Transfected T47D, MCF-7, MDA-MB-231, HeLa and H1373 cells were pelleted and resuspended in 500 μL PBS (Invitrogen) containing 1 μM 7-aminoactinomycin D (7-AAD) (Invitrogen) for 30 min prior to analysis following the recommended protocol from the manufacturer. The assay was performed 48 h after transfection for T47D, MCF-7 and H1373 and 24 h after transfection for MDA-MB-231 and HeLa. Only EGFP positive cells were analyzed by using the FACS Canto-II (BD-BioSciences) with FACS Diva software. EGFP and 7-AAD were excited with the 488 nm laser, and were detected at 507 nm and 660 nm, respectively. Independent transfections of each construct were tested three times (n=3).
(§2) Transfected T47D, H1373, SKOV-3 and HeLa cells were pelleted and re-suspended in 500 μL PBS (Invitrogen) containing 1 μM 7-aminoactinomycin D (7-AAD) (Invitrogen) for 30 min prior to analysis. T47D and H1373 cells were analyzed 48 h after transfection, while SKOV-3 and HeLa cells were analyzed 24 h after transfection (time points optimized empirically). Only EGFP positive cells were assayed using the FACS Canto-II (BD-BioSciences) with FACS Diva software as previously. EGFP and 7-AAD were excited at 488 nm, and detected at 507 nm and 660 nm, respectively. Independent transfections of each construct were assayed three times (n=3). The highest value (EGFP positive cells stained with 7-AAD) was set at 100%, and the lowest at 0% (relative 7-AAD) as previously.

Assay [2] relates to T47D cells. The assay is described as follows: 7-AAD assay in T47D cells. Particulars: 48 h after transfection, EGFP positive cells only. As to the method: as §1, §2
Assay [3] has as its system H1373 cells. The assay is described as follows: 7-AAD assay in H1373 cells. Particulars: H1373 (p53 null), 48 h after transfection. As to the method: as §1, §2
The test system of assay [4] is SKOV-3 cells. The assay is described as follows: 7-AAD assay in SKOV-3 cells. The procedure:
as §2

Assay [5] concerns T47D cells. The assay is described as follows: Annexin V assay in T47D cells. The conditions noted are these: 48 h after transfection. As to the method:
48 h after transfection, T47D cells were pelleted and resuspended in 400 μL of annexin-V binding buffer (Invitrogen) and incubated with 5 μL of annexin-APC (annexin-V conjugated to allophycocyanin, Invitrogen) for 15 min as before. Only transfected cells were analyzed as mentioned in 7-AAD assay. EGFP and APC were excited at 488 nm and 635 nm wavelengths, respectively and detected at their corresponding 507 nm and 660 nm wavelengths. Independent transfections of each construct were tested three times (n=3).

The test system of assay [6] is T47D cells. Kind of assay: Rescue experiment using BFP-Bcl-XL (7-AAD) in T47D cells. The conditions noted are these: 48 h after transfection, Bcl-XL overexpression. The procedure:
T47D cells were co-transfected with 1 pmol of EGFP constructs and 1 pmol of BFP-Bcl-XL (BFP tag is necessary for gating Bcl-XL transfected cells). 48 h after transfection the 7-AAD assay was performed as described above. FACSCanto-II (BD-BioSciences) and FACSDiva software were used for EGFP and BFP gating. Excitation was set at 488 nm, and detected at 507 nm and 660 nm for EGFP and 7-AAD, respectively. BFP was excited at 405 nm and detected at 457 nm. Independent transfections of each construct were tested three times (n=3).

Assay [7] concerns T47D cells. Kind of assay: TUNEL assay in T47D cells. Particulars: 48 h after transfection. As to the method:
T47D cells were harvested 48 h after transfection. In situ Death Detection Kit, TMR red (Roche, Mannheim, Germany) was used following manufacturer's recommendations as before. Cells were resuspended in PBS (Invitrogen) and analyzed via the FACSAria-II (BD-Biosciences, University of Utah Core Facility). EGFP and TMR red were excited at 488 nm and 563 nm, respectively, and FACSDiva software was used to analyze the data. Independent transfections of each construct were tested three times (n=3).

“Also recorded” adds a separate entry of the source.

“DBD-BakMTS: DBD of p53 cloned between EGFP and Bak MTS”: the “7-AAD positive cells (late apoptosis)” value was “significant from their corresponding negative controls; also recorded: trend of higher apoptotic activity in HeLa cells compared to p53-BakMTS; also recorded: induces robust apoptosis, similar to, or greater than wt p53 with MTS; also recorded: outperformed DBD-BaxMTS; also recorded: induces apoptosis in all 3 cell lines” in assay [1]; “significantly higher apoptosis compared to cells transfected with MTS negative controls; also recorded: trending higher; also recorded: induces robust apoptosis, similar to, or greater than wt p53 with MTS; also recorded: outperformed DBD-BaxMTS; also recorded: induces apoptosis in all 3 cell lines” in assay [2]; “statistically higher from their negative control E-BakMTS; also recorded: significantly higher activities compared to their positive controls; also recorded: induces robust apoptosis, similar to, or greater than wt p53 with MTS; also recorded: outperformed DBD-BaxMTS; also recorded: induces apoptosis in all 3 cell lines” in assay [3]; “significantly higher than their negative control E-BakMTS; also recorded: trending higher; also recorded: induces late stage apoptosis” in assay [4] (SKOV-3 (p53 null), 24 h after transfection). In addition, the “apoptosis in SKOV-3 (assay not stated at place)” value in assay [4] (ovarian cancer cells SKOV-3) is “triggers apoptosis”.

Regarding “DBDK120E-BakMTS: DBD-BakMTS with K120E mutation”, the “7-AAD positive cells (late apoptosis)” value in assay [2] is “not statistically significant from the negative control E-BakMTS”.

In the case of “p53K120E-BakMTS: p53-BakMTS with K120E mutation”, the “7-AAD positive cells (late apoptosis)” value in assay [2] was “not statistically significant from the negative control E-BakMTS”.

As for “p53m6-BakMTS: p53-BakMTS with K120A, R248A, R273A, R280A, E285A, E287A mutations”, the “7-AAD positive cells (late apoptosis)” value in assay [2] is on record as “not significantly different from their negative control; also recorded: complete loss in apoptotic activity compared to their non-mutated controls”.

As for “p53ΔC-XL: EGFP, p53ΔC (amino acids 1-322, lacks the C-terminus) and XL MTS”, the “7-AAD positive cells (late apoptosis)” value in assay [2] is listed as “statistically higher than the negative control E-XL; also recorded: not statistically significant from each other”.

B1: PRD-XL: EGFP, proline-rich domain of p53, XL MTS (protein)
chain: APRMPEAAPPVAPAPAAPTPAAPAPAPSWPLSSSVRKGQERFNRWFLTGMTVAGVVLLGSLFSRK
modifications: left off: large carriers
notes: EGFP, proline-rich domain of p53, XL MTS
As to B1, in assay [5], the “Annexin V positive cells (apoptotic potential)” value is “not statistically significant from the negative control”. Moreover, the “apoptotic activity (7-AAD) on cotransfection of BFP-Bcl-XL (rescue)” value in assay [6] is reported as “not altered by Bcl-XL overexpression”. The “TUNEL positive cells (DNA fragmentation)” value in assay [7] was “not statistically different from the negative control; also recorded: statistically significantly lower than p53-XL”. For the same molecule, the results for the “7-AAD positive cells (late apoptosis)” value in assay [1] and in assay [2] were “statistically significant from p53-XL” and “not statistically significant from the negative control E-XL indicating no apoptotic activity; also recorded: statistically significantly lower than p53-XL”, respectively.

B2: TD-XL: EGFP, tetramerization domain of p53, XL MTS (protein)
chain: LDGEYFTLQIRGRERFEMFRELNEALELKDAQAGRKGQERFNRWFLTGMTVAGVVLLGSLFSRK
modifications: left off: large carriers
notes: EGFP, tetramerization domain of p53, XL MTS
B2: in assay [5], the “Annexin V positive cells (apoptotic potential)” value was “not statistically significant from the negative control”. In assay [6], the “apoptotic activity (7-AAD) on cotransfection of BFP-Bcl-XL (rescue)” value is on record as “reduction in apoptotic potential”. Moreover, in assay [7], the “TUNEL positive cells (DNA fragmentation)” value is listed as “not statistically different from the negative control; also recorded: statistically significantly lower than p53-XL”. Besides, the “7-AAD positive cells (late apoptosis)” value in assay [2] was “statistically different from the negative controls but is also significantly lower than p53-XL”.

B3: DBDm6-BakMTS: DBD-BakMTS with K120A, R248A, R273A, R280A, E285A, E287A mutations (protein)
chain: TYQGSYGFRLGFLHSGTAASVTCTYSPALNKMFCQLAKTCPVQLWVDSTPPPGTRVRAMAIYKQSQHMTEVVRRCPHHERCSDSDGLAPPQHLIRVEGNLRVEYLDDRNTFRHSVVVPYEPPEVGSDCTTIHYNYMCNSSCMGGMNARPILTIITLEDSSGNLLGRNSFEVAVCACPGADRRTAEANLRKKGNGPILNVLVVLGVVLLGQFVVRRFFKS
modifications: left off: large carriers
notes: DBD-BakMTS with K120A, R248A, R273A, R280A, E285A, E287A mutations
For the molecule B3, the “7-AAD positive cells (late apoptosis)” value in assay [2] is “not significantly different from their negative control; also recorded: complete loss in apoptotic activity compared to their non-mutated controls”.
